B1: Hammerhead Ribozyme (parent)
chain: ACCGGAUGUGCUUUCCGGUCUGAUGAGUCCGUGAGGACGAAACAG

Variants of: B1
Assay: self-cleavage, relative activity (ratio to wild type); higher = more cleavage; co-transcriptional

Variant	self-cleavage
C2U A37C	0.782
C2U A37G	1.01
C2U A37U	0.849
C2U A40C	0.51
C2U A40G	0.284
C2U A40U	0.346
C2U A41C	0.35
C2U A41G	0.389
C2U A41U	0.365
C2U A42C	0.358
C2U A42G	0.467
C2U A42U	0.301
C2U A44C	0.664
C2U A44G	1.55
C2U A44U	0.646
C2U C3A	0.417
C2U C3G	0.319
C2U C3U	0.588
C2U C11A	1.46
C2U C11G	1.5
C2U C11U	0.739
C2U C15A	0.397
C2U C15G	0.385
C2U C15U	0.76

Variant	self-cleavage
C2U C16A	0.367
C2U C16G	0.356
C2U C16U	1.07
C2U C20A	0.63
C2U C20G	0.37
C2U C20U	0.797
C2U C29A	0.701
C2U C29G	1.02
C2U C29U	1.29
C2U C30A	0.893
C2U C30G	0.876
C2U C30U	1.04
C2U C38A	0.854
C2U C38G	0.976
C2U C38U	1.21
C2U C43A	0.361
C2U C43G	0.372
C2U C43U	0.441
C2U G4A	0.361
C2U G4C	0.397
C2U G4U	0.335
C2U G5A	0.633
C2U G5C	0.364
C2U G5U	0.535

Variant	self-cleavage
C2U G8A	0.998
C2U G8C	0.871
C2U G8U	0.948
C2U G10A	1.22
C2U G10C	1.5
C2U G10U	1.39
C2U G17A	0.392
C2U G17C	0.375
C2U G17U	0.409
C2U G18A	1.19
C2U G18C	0.869
C2U G18U	1.16
C2U G22A	0.341
C2U G22C	0.323
C2U G22U	0.376
C2U G25A	0.386
C2U G25C	0.345
C2U G25U	0.28
C2U G27A	1.06
C2U G27C	0.654
C2U G27U	0.568
C2U G31A	1.11
C2U G31C	0.974
C2U G31U	1.12

Variant	self-cleavage
C2U G33A	1.14
C2U G33C	1.06
C2U G33U	1.17
C2U G35A	0.871
C2U G35C	0.647
C2U G35U	0.757
C2U G36A	0.698
C2U G36C	0.371
C2U G36U	0.488
C2U G39A	0.376
C2U G39C	0.336
C2U G39U	0.359
C2U G45A	0.873
C2U G45C	0.868
C2U G45U	0.835
C2U U7A	1.58
C2U U7C	0.541
C2U U7G	1.72
C2U U9A	1.24
C2U U9C	0.983
C2U U9G	0.659
C2U U12A	1.26
C2U U12C	1.06
C2U U12G	1.21

Variant	self-cleavage
C2U U13A	1.52
C2U U13C	1.34
C2U U13G	1.24
C2U U14A	0.8
C2U U14C	0.474
C2U U14G	1.11
C2U U19A	0.365
C2U U19C	0.531
C2U U19G	0.319
C2U U21A	0.962
C2U U21C	0.273
C2U U21G	0.742
C2U U24A	1.05
C2U U24C	1.35
C2U U24G	1.29
C2U U28A	0.445
C2U U28C	0.79
C2U U28G	0.7
C2U U32A	0.97
C2U U32C	0.971
C2U U32G	1.04
C3A	0.772
C3A A6C	0.335
C3A A6G	0.366

Variant	self-cleavage
C3A A6U	0.371
C3A A23C	0.352
C3A A23G	0.296
C3A A23U	0.28
C3A A26C	0.292
C3A A26G	0.253
C3A A26U	0.399
C3A A34C	0.359
C3A A34G	0.515
C3A A34U	0.358
C3A A37C	0.354
C3A A37G	0.539
C3A A37U	0.388
C3A A40C	0.324
C3A A40G	0.353
C3A A40U	0.278
C3A A41C	0.299
C3A A41G	0.262
C3A A41U	0.259
C3A A42C	0.313
C3A A42G	0.279
C3A A42U	0.356
C3A A44C	0.418
C3A A44G	1.01

Variant	self-cleavage
C3A A44U	0.392
C3A C11A	0.754
C3A C11G	0.562
C3A C11U	0.358
C3A C15A	0.312
C3A C15G	0.346
C3A C15U	0.518
C3A C16A	0.596
C3A C16G	0.438
C3A C16U	0.557
C3A C20A	0.348
C3A C20G	0.254
C3A C20U	0.319
C3A C29A	0.406
C3A C29G	0.397
C3A C29U	0.534
C3A C30A	0.557
C3A C30G	0.426
C3A C30U	0.772
C3A C38A	0.315
C3A C38G	0.329
C3A C38U	0.515
C3A C43A	0.28
C3A C43G	0.261

Variant	self-cleavage
C3A C43U	0.378
C3A G4A	0.293
C3A G4C	0.216
C3A G4U	0.282
C3A G5A	0.319
C3A G5C	0.319
C3A G5U	0.28
C3A G8A	0.629
C3A G8C	0.467
C3A G8U	0.902
C3A G10A	0.897
C3A G10C	0.587
C3A G10U	0.921
C3A G17A	0.634
C3A G17C	0.708
C3A G17U	0.874
C3A G18A	0.344
C3A G18C	0.365
C3A G18U	0.324
C3A G22A	0.308
C3A G22C	0.285
C3A G22U	0.291
C3A G25A	0.298
C3A G25C	0.344

Variant	self-cleavage
C3A G25U	0.282
C3A G27A	0.365
C3A G27C	0.422
C3A G27U	0.305
C3A G31A	0.912
C3A G31C	0.791
C3A G31U	1.05
C3A G33A	0.674
C3A G33C	0.741
C3A G33U	0.733
C3A G35A	0.376
C3A G35C	0.324
C3A G35U	0.369
C3A G36A	0.287
C3A G36C	0.338
C3A G36U	0.283
C3A G39A	0.277
C3A G39C	0.282
C3A G39U	0.235
C3A G45A	0.358
C3A G45C	0.355
C3A G45U	0.448
C3A U7A	0.687
C3A U7C	0.386

Variant	self-cleavage
C3A U7G	0.7
C3A U9A	0.476
C3A U9C	0.756
C3A U9G	0.327
C3A U12A	0.836
C3A U12C	0.262
C3A U12G	0.487
C3A U13A	1.33
C3A U13C	0.963
C3A U13G	0.847
C3A U14A	0.422
C3A U14C	0.436
C3A U14G	0.672
C3A U19A	0.316
C3A U19C	0.277
C3A U19G	0.296
C3A U21A	0.37
C3A U21C	0.376
C3A U21G	0.358
C3A U24A	0.811
C3A U24C	0.94
C3A U24G	0.574
C3A U28A	0.311
C3A U28C	0.354

Variant	self-cleavage
C3A U28G	0.34
C3A U32A	0.7
C3A U32C	0.803
C3A U32G	0.355
C3G	0.537
C3G A6C	0.361
C3G A6G	0.294
C3G A6U	0.322
C3G A23C	0.328
C3G A23G	0.257
C3G A23U	0.242
C3G A26C	0.268
C3G A26G	0.296
C3G A26U	0.361
C3G A34C	0.422
C3G A34G	0.409
C3G A34U	0.389
C3G A37C	0.293
C3G A37G	0.334
C3G A37U	0.327
C3G A40C	0.284
C3G A40G	0.341
C3G A40U	0.309
C3G A41C	0.299

Variant	self-cleavage
C3G A41G	0.274
C3G A41U	0.3
C3G A42C	0.31
C3G A42G	0.256
C3G A42U	0.23
C3G A44C	0.374
C3G A44G	0.667
C3G A44U	0.32
C3G C11A	0.702
C3G C11G	0.647
C3G C11U	0.314
C3G C15A	0.298
C3G C15G	0.314
C3G C15U	0.231
C3G C16A	0.39
C3G C16G	0.258
C3G C16U	0.327
C3G C20A	0.295
C3G C20G	0.317
C3G C20U	0.26
C3G C29A	0.324
C3G C29G	0.345
C3G C29U	0.418
C3G C30A	0.353

Variant	self-cleavage
C3G C30G	0.273
C3G C30U	0.636
C3G C38A	0.279
C3G C38G	0.279
C3G C38U	0.37
C3G C43A	0.318
C3G C43G	0.273
C3G C43U	0.272
C3G G4A	0.283
C3G G4C	0.289
C3G G4U	0.322
C3G G5A	0.57
C3G G5C	0.268
C3G G5U	0.305
C3G G8A	0.406
C3G G8C	0.452
C3G G8U	0.656
C3G G10A	0.771
C3G G10C	0.52
C3G G10U	0.638
C3G G17A	0.511
C3G G17C	0.617
C3G G17U	0.583
C3G G18A	0.323

Variant	self-cleavage
C3G G18C	0.335
C3G G18U	0.535
C3G G22A	0.304
C3G G22C	0.292
C3G G22U	0.276
C3G G25A	0.296
C3G G25C	0.33
C3G G25U	0.329
C3G G27A	0.317
C3G G27C	0.284
C3G G27U	0.265
C3G G31A	0.636
C3G G31C	0.527
C3G G31U	0.609
C3G G33A	0.577
C3G G33C	0.468
C3G G33U	0.591
C3G G35A	0.292
C3G G35C	0.248
C3G G35U	0.32
C3G G36A	0.271
C3G G36C	0.328
